We go through 2 molecules from patent US20260043816A1 (AC IMMUNE, published 2026).

Square brackets hold non-standard residues; d marks the D form. Ends that are not written are not given here. * marks the point of attachment. Biotin = O=C1N[C@H]2[C@H](CS[C@H]2CCCCC(=O)*)N1; pS = N[C@@H](COP(=O)(O)O)C(=O)O

Test [1] has as its target T1, biotinylated TDP-43 phospho peptide 401-413 (pS409) (human).
T1 peptide: Biotin-FGSSMDSK[pS]SGWG
In words: capture ELISA, antibody on anti-mouse IgG, biotinylated peptide. On the procedure:
(§1) Briefly, for capture detection in ELISA, wells of 96-well plates were coated with 5 μg/mL goat anti-mouse IgG (Fc gamma fragment specific), in carbonate buffer, overnight at 4° C. Plates were then washed with 0.05% Tween-20/PBS and blocked with 1% bovine serum albumin (BSA) in 0.05% Tween-20/PBS for 1 hour at 37° C. Phospho TDP-43 antibodies were then added at 5 μg/mL and incubated for 2 hours at 37° C. after which the plates were washed as described above. Biotinylated peptides representing each of the phospho sites, or non-phosphorylated, were incubated at 0.5 mM in 0.1% BSA and PBS for 1 hour at 37° C. after which the plates were washed. A streptavidin-HRP-conjugate (R&D Systems, Minnesota, United States) was added at 1/200 dilution in 0.05% Tween-20/1% BSA in PBS for 45 minutes in the dark at ambient temperature. After the final wash, plates were incubated with TMB (Sigma-Aldrich, Switzerland), an HRP substrate solution, and read at 405 nm using an ELISA plate reader (Tecan, Switzerland).

Test [2] concerns the target T2, biotinylated non-phosphorylated TDP-43 peptide 366-414 (human, biotin on the N-terminus).
T2 peptide: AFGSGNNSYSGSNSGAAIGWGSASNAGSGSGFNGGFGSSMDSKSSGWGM
Described as above. The protocol: as §1

Test [3] addresses T3, biotinylated TDP-43 phospho peptide 396-409 (pS403 and pS404) (human, phosphoserine at 403 and 404 (SEQ ID NO: 1 numbering); biotin on the N-terminus).
T3 peptide: GFNGGFGSSMDSKS
Described as above. On the procedure:
as §1

Test [4] deals with T4, biotinylated TDP-43 phospho peptide 396-409 (pS404) (human).
T4 peptide: Biotin-GFNGGFGS[pS]MDSKS
The test is described as above. The protocol: as §1

The target of test [5] is T5, biotinylated TDP-43 phospho peptide 401-413 (pS409 and pS410) (human).
T5 peptide: Biotin-FGSSMDSK[pS][pS]GWG
The test is described as above. The protocol:
as §1

Test [6] concerns the target T6, biotinylated TDP-43 phospho peptide 396-409 (pS403) (human, phosphoserine at 403 (SEQ ID NO: 1 numbering); biotin on the N-terminus).
T6 peptide: GFNGGFGSSMDSKS
The description is as above. The protocol: as §1

The target of test [7] is T7, biotinylated TDP-43 phospho peptide 401-413 (pS410) (human).
T7 peptide: Biotin-FGSSMDSKS[pS]GWG
Described as above. The protocol: as §1

For test [8], the target named is T8, recombinant full length TDP-43 (SEQ ID NO: 1, FL TDP-43) (human, UniProt Q13148 1-414).
T8 construct: also called recombinant human soluble FL TDP-43; soluble human TDP-43
Put plainly: pairing sandwich ELISA, biotinylated antibody as detector, FL TDP-43 titrated. The protocol: (§2) The capacity of antibodies to bind phospho TDP-43 and TDP-43 was determined using a sandwich enzyme-linked immunosorbent assay (ELISA), where each antibody was paired with a second TDP-43 antibody previously characterized for TDP-43 binding and performance in sandwich immunoassays, ACI-7071-809F12-Ab1-rec2 (as described in WO2020234473) or ACI-7069-636E5-Ab1 (as described in WO2020234473). ELISA plates (Nunc™ Edge™ 96-Well, Non-Treated, Flat-Bottom Microplate, ThermoFisher Scientific, Denmark) were coated with 5 μg/mL of anti-phospho TDP-43 or anti-TDP-43 antibodies in carbo/bicarbonate buffer, overnight at 4° C. Plates were then washed with 0.05% Tween-20/PBS and blocked with 1% bovine serum albumin (BSA) in 0.05% Tween-20/PBS for 1 hour at 37° C. The plates were then washed again as described above.
Serial-dilutions of target peptide or protein were then added to the plates. For assays with anti-phospho TDP-43 antibodies, one of four peptide conjugates (peptides 11, 23, 28, or 29) each composed of two TDP-43 sequences, one phosphorylated and one non-phosphorylated, conjugated together with a Trioxatridecan-succinamic acid linker (Ttds, binding regions and sequences shown in Table 4) were used. Peptides 11, 23, 28, and 29 were added in a 10-fold serial dilution starting at 0.5 μM. […] The plate was read at 450 nm using an ELISA plate reader (Tecan, Switzerland).

The target of test [9] is T8, recombinant full length TDP-43 (SEQ ID …). Put plainly: SPR Biacore T200, FL TDP-43 immobilized, antibody analyte (avidity), 1:1 fit. On the procedure: Binding avidity of ACI-7071-4665-B5-R3B-Ab2 to soluble FL TDP-43 was evaluated by determining the KD value using SPR (Biacore T200, GE Healthcare Life Sciences). Recombinant human soluble FL TDP-43 was immobilized on a CM5 Series S sensor chip (GE Healthcare Life Sciences) by amine coupling. Soluble TDP-43 was immobilized at a concentration of 5 μg/ml in 10 mM sodium acetate (pH 4.5) with a flow rate of 5 μl/min for 420 seconds resulting in an immobilization level of 150 RU. […] Antibodies were injected at a flow rate of […] for 90 seconds contact time and 700 seconds dissociation phase followed by three regenerations with 10 mM glycine-HCl (pH 1.7). For the optimized SPR protocol the antibodies were diluted 3-fold starting from 300 nM and dilute down to 1.2 nM and injected for 300 seconds at 30 μL/min followed by 600 seconds of dissociation. The chip surface was regenerated by one injection with 10 mM glycine-HCl (pH 1.7). Results obtained from binding kinetics were double referenced using a blank flow cell and a buffer cycle, and were evaluated with a global 1:1 fitting model with RI.

The target is the same in test [10]. Put plainly: pairing sandwich ELISA, antibody coated as capture, FL TDP-43 titrated. The protocol: as §2
Serial-dilutions of target peptide or protein were then added to the plates. For assays with anti-phospho TDP-43 antibodies, one of four peptide conjugates (peptides 11, 23, 28, or 29) each composed of two TDP-43 sequences, one phosphorylated and one non-phosphorylated, conjugated together with a Trioxatridecan-succinamic acid linker (Ttds, binding regions and sequences shown in Table 4) were used. Peptides 11, 23, 28, and 29 were added in a 10-fold serial dilution starting at 0.5 μM. For assays with TDP-43 antibodies only, recombinant full length TDP-43 (SEQ ID NO: 1, FL TDP-43) was diluted 3-fold from 21.9 pM. Plates were incubated for 1 hour at 37° C., and then washed. […] PEG-biotinylated phospho TDP-43 or TDP-43 antibodies were then respectively added to the wells and incubated for 1 hour at 37° C., after which the plates were washed. Horseradish peroxidase (HRP)-conjugated streptavidin (R&D Systems, Switzerland) was added at 1/200 dilution in 1% BSA and 0.05% Tween-20/PBS for 45 min at room temperature. […] The plate was read at 450 nm using an ELISA plate reader (Tecan, Switzerland).

B1: ACI-8070-942.30D12-Ab1 (antibody, V domains shown)
VH: DVQLVESGGGLVQPGGSRKLSCEASGFTFSSIGMHWVRQAPEKGLEWVAYITSGSSTIYYADTVKGRFTISRDNPKNTLFLQMTSLRSEDTAIYYCAGSGPGTDYWGQGTTLTVSS
VL: DIKMTQSPSSMYASLGERVTITCKASQDINSYLSWFQQKPGKSPKTLIYRANRLVDGVPSRFSGSGSGQDYSLTISSLEYEDMGIYYCLQYDEFPLTFGAGTKLELK
notes: Mouse hybridoma antibody; also called 942.30D12F9; pS375/pS379 TDP-43 antibody
On to B1, for which the binding result in [1], in [2], in test [3], in [4], in test [5] and in [6] was “no binding (tested: peptide at 0.5 mM)” each time. For the same molecule, in test [7], the binding result is “no binding (tested: peptide at 0.5 mM)”.

B2: ACI-7071-4665-B5-R3B-Ab2 (antibody, mouse IgG2a, V domains shown)
VH: QVQLKQSGPELVKPGASVKLSCKASGYTFTTYDINWVKQRPGQGPEWIGWIYPRVGNTKYNEKFKDKATLTVDTSSSTAYMELHSLTSEDSAVYFCASALTYWGQGTLVTVSA
VL: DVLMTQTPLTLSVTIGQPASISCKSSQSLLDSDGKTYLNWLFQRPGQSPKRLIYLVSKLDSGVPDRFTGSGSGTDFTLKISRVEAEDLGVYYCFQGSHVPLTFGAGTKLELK
notes: also called 4665-B5-R3B-B8; ACI-7071-4665-B5-Ab2
Consider B2, for which the binding result in [1] is “no binding (tested: peptide at 0.5 mM)”; in test [2], “binds”; in [3] it was “no binding (tested: peptide at 0.5 mM)”; in test [4], “no binding (tested: peptide at 0.5 mM)”; in test [5], “no binding (tested: peptide at 0.5 mM)”; in test [6] it was “no binding (tested: peptide at 0.5 mM)”. For the same molecule, the binding result in test [7] is on record as “no binding (tested: peptide at 0.5 mM)”. Besides, the EC50 stood at 0.181 nM in test [8] and 0.072 nM in test [10]. Further, the Kd in test [9] is 0.39 nM. In test [9], the koff was 1.66e-05 s⁻¹. The kon in test [9] was determined as 42900 M⁻¹ s⁻¹.
